Test results from the supplement of paper PMC9112550, “Optimization of the antimicrobial peptide Bac7 by deep mutational scanning” (BMC Biology, 2022).

Tested on: Escherichia coli TOP10
Test: shrunken log2 fold change of peptide-encoding DNA abundance (4.5 h post-induction vs induction); higher = less antimicrobial activity (less host growth inhibition)
Conditions: time post-induction: 4.5 h; library: site-saturation at positions 5, 18, 19, 20
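Also: peptides expressed intracellularly from a pBAD plasmid library in pooled LB shake-flask culture, induced with 0.3% L-arabinose, DNA abundance read by NGS, three biological replicates, DESeq2 with apeglm shrinkage.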

## RRIRLRPPRLPRPRPRPDWMPRP
  shrunken log2 fold change: -0.152

## RRIRVRPPRLPRPRPRPMVYPRP
  shrunken log2 fold change: -0.17

## RRIRPRPPRLPRPRPRPVGRPRP
  shrunken log2 fold change: 0.0963

## RRIRKRPPRLPRPRPRPWVWPRP
  shrunken log2 fold change: 0.445

## RRIRHRPPRLPRPRPRPYAYPRP
  shrunken log2 fold change: -0.596

## RRIRCRPPRLPRPRPRPSMPPRP
  shrunken log2 fold change: -0.558

## RRIRVRPPRLPRPRPRPEPSPRP
  shrunken log2 fold change: 0.0778

## RRIRIRPPRLPRPRPRPKATPRP
  shrunken log2 fold change: -0.141

## RRIRSRPPRLPRPRPRPRFTPRP
  shrunken log2 fold change: -0.115

## RRIRSRPPRLPRPRPRPAICPRP
  shrunken log2 fold change: 0.147

## RRIRHRPPRLPRPRPRPIQPPRP
  shrunken log2 fold change: 0.0532

## RRIRRRPPRLPRPRPRPNIPPRP
  shrunken log2 fold change: -0.24

## RRIRKRPPRLPRPRPRPYISPRP
  shrunken log2 fold change: -0.0238

## RRIRRRPPRLPRPRPRPAVIPRP
  shrunken log2 fold change: 0.00992

## RRIRHRPPRLPRPRPRPFGAPRP
  shrunken log2 fold change: -0.0114

## RRIRDRPPRLPRPRPRPAGCPRP
  shrunken log2 fold change: 0.738

## RRIRERPPRLPRPRPRPFVEPRP
  shrunken log2 fold change: 0.0315

## RRIRARPPRLPRPRPRPKAKPRP
  shrunken log2 fold change: 0.287

## RRIRFRPPRLPRPRPRPYTEPRP
  shrunken log2 fold change: -0.631

## RRIRTRPPRLPRPRPRPMYNPRP
  shrunken log2 fold change: -0.325

## RRIRNRPPRLPRPRPRPFACPRP
  shrunken log2 fold change: 0.0153

## RRIRSRPPRLPRPRPRPHQRPRP
  shrunken log2 fold change: -0.249

## RRIRWRPPRLPRPRPRPQDNPRP
  shrunken log2 fold change: -0.421

## RRIRIRPPRLPRPRPRPFNKPRP
  shrunken log2 fold change: -0.179

## RRIRGRPPRLPRPRPRPLAPPRP
  shrunken log2 fold change: 0.998

## RRIRIRPPRLPRPRPRPHKHPRP
  shrunken log2 fold change: -0.881

## RRIRQRPPRLPRPRPRPLMMPRP
  shrunken log2 fold change: -0.0501

## RRIRARPPRLPRPRPRPWMGPRP
  shrunken log2 fold change: 0.0382

## RRIRDRPPRLPRPRPRPISWPRP
  shrunken log2 fold change: 0.0803

## RRIRIRPPRLPRPRPRPNPHPRP
  shrunken log2 fold change: -0.581

## RRIRCRPPRLPRPRPRPYQIPRP
  shrunken log2 fold change: -0.852

## RRIRWRPPRLPRPRPRPGYTPRP
  shrunken log2 fold change: -0.13

## RRIRPRPPRLPRPRPRPDKNPRP
  shrunken log2 fold change: -0.308

## RRIRPRPPRLPRPRPRPVWDPRP
  shrunken log2 fold change: 0.212

## RRIRYRPPRLPRPRPRPRFMPRP
  shrunken log2 fold change: -0.323

## RRIRYRPPRLPRPRPRPYRHPRP
  shrunken log2 fold change: -1.4

## RRIRERPPRLPRPRPRPKHLPRP
  shrunken log2 fold change: -0.202

## RRIRARPPRLPRPRPRPQMVPRP
  shrunken log2 fold change: -0.0332

## RRIRKRPPRLPRPRPRPSPTPRP
  shrunken log2 fold change: -0.00658

## RRIRGRPPRLPRPRPRPWAQPRP
  shrunken log2 fold change: -0.035

## RRIRARPPRLPRPRPRPMNCPRP
  shrunken log2 fold change: -0.116

## RRIRDRPPRLPRPRPRPQYVPRP
  shrunken log2 fold change: -0.229

## RRIRFRPPRLPRPRPRPDLTPRP
  shrunken log2 fold change: -0.181

## RRIRLRPPRLPRPRPRPSINPRP
  shrunken log2 fold change: -0.32

## RRIRCRPPRLPRPRPRPYWLPRP
  shrunken log2 fold change: -0.669

## RRIRCRPPRLPRPRPRPDFMPRP
  shrunken log2 fold change: -0.163

## RRIRFRPPRLPRPRPRPCLIPRP
  shrunken log2 fold change: -0.448

## RRIRVRPPRLPRPRPRPTLRPRP
  shrunken log2 fold change: 0.102

## RRIRFRPPRLPRPRPRPQIMPRP
  shrunken log2 fold change: -0.736

## RRIRERPPRLPRPRPRPCLDPRP
  shrunken log2 fold change: -0.0689

## RRIRNRPPRLPRPRPRPKGEPRP
  shrunken log2 fold change: -0.00804

## RRIRRRPPRLPRPRPRPHDMPRP
  shrunken log2 fold change: -0.103

## RRIRWRPPRLPRPRPRPSARPRP
  shrunken log2 fold change: 0.54

## RRIRYRPPRLPRPRPRPYTVPRP
  shrunken log2 fold change: -0.00544

## RRIRRRPPRLPRPRPRPCRPPRP
  shrunken log2 fold change: 0.0965

## RRIRVRPPRLPRPRPRPEHCPRP
  shrunken log2 fold change: 0.404

## RRIRPRPPRLPRPRPRPVDGPRP
  shrunken log2 fold change: 0.0909

## RRIRNRPPRLPRPRPRPMNGPRP
  shrunken log2 fold change: 0.015

## RRIRYRPPRLPRPRPRPKDNPRP
  shrunken log2 fold change: -0.75

## RRIRSRPPRLPRPRPRPFVMPRP
  shrunken log2 fold change: -0.0833

## RRIRHRPPRLPRPRPRPYESPRP
  shrunken log2 fold change: -0.0531

## RRIRGRPPRLPRPRPRPKYAPRP
  shrunken log2 fold change: 0.501

## RRIRNRPPRLPRPRPRPTRFPRP
  shrunken log2 fold change: 0.3

## RRIRTRPPRLPRPRPRPEDMPRP
  shrunken log2 fold change: -0.00975

## RRIRARPPRLPRPRPRPTQRPRP
  shrunken log2 fold change: 0.915

## RRIRIRPPRLPRPRPRPMNDPRP
  shrunken log2 fold change: -0.00303

## RRIRYRPPRLPRPRPRPQFCPRP
  shrunken log2 fold change: -0.0677

## RRIRTRPPRLPRPRPRPSQSPRP
  shrunken log2 fold change: -0.114

## RRIRFRPPRLPRPRPRPSFIPRP
  shrunken log2 fold change: -0.831

## RRIRRRPPRLPRPRPRPRETPRP
  shrunken log2 fold change: 1.13

## RRIRWRPPRLPRPRPRPKKPPRP
  shrunken log2 fold change: 0.558

## RRIRERPPRLPRPRPRPMARPRP
  shrunken log2 fold change: 0.116

## RRIRRRPPRLPRPRPRPENYPRP
  shrunken log2 fold change: 0.0652

## RRIRNRPPRLPRPRPRPSYRPRP
  shrunken log2 fold change: -0.102

## RRIRERPPRLPRPRPRPWSNPRP
  shrunken log2 fold change: -0.0583

## RRIRRRPPRLPRPRPRPKADPRP
  shrunken log2 fold change: 0.198

## RRIRDRPPRLPRPRPRPKPEPRP
  shrunken log2 fold change: 0.0415

## RRIRCRPPRLPRPRPRPAFYPRP
  shrunken log2 fold change: -0.146

## RRIRLRPPRLPRPRPRPQWNPRP
  shrunken log2 fold change: -0.289

## RRIRLRPPRLPRPRPRPMWYPRP
  shrunken log2 fold change: 0.0493

## RRIRTRPPRLPRPRPRPGREPRP
  shrunken log2 fold change: 0.0772

## RRIRLRPPRLPRPRPRPRRAPRP
  shrunken log2 fold change: 0.585

## RRIRPRPPRLPRPRPRPFHCPRP
  shrunken log2 fold change: -0.297

## RRIRKRPPRLPRPRPRPVPEPRP
  shrunken log2 fold change: 0.151

## RRIRGRPPRLPRPRPRPISCPRP
  shrunken log2 fold change: 0.279

## RRIRPRPPRLPRPRPRPILEPRP
  shrunken log2 fold change: -0.132

## RRIRMRPPRLPRPRPRPPPNPRP
  shrunken log2 fold change: 1.77

## RRIRDRPPRLPRPRPRPCMGPRP
  shrunken log2 fold change: -0.0733

## RRIRHRPPRLPRPRPRPYDNPRP
  shrunken log2 fold change: -0.0737

## RRIRFRPPRLPRPRPRPDIGPRP
  shrunken log2 fold change: -0.0309

## RRIRWRPPRLPRPRPRPIARPRP
  shrunken log2 fold change: -0.00663

## RRIRIRPPRLPRPRPRPIRCPRP
  shrunken log2 fold change: 0.0793

## RRIRNRPPRLPRPRPRPHWNPRP
  shrunken log2 fold change: -1.01

## RRIRFRPPRLPRPRPRPPNQPRP
  shrunken log2 fold change: 0.23

## RRIRGRPPRLPRPRPRPWWPPRP
  shrunken log2 fold change: 0.404

## RRIRRRPPRLPRPRPRPIPAPRP
  shrunken log2 fold change: 0.804

## RRIRHRPPRLPRPRPRPYHQPRP
  shrunken log2 fold change: -0.981

## RRIRCRPPRLPRPRPRPKHRPRP
  shrunken log2 fold change: -0.212

## RRIRTRPPRLPRPRPRPSCMPRP
  shrunken log2 fold change: -0.0847

## RRIRPRPPRLPRPRPRPYPIPRP
  shrunken log2 fold change: -0.175

## RRIRDRPPRLPRPRPRPNCTPRP
  shrunken log2 fold change: 0.476

## RRIRWRPPRLPRPRPRPPQIPRP
  shrunken log2 fold change: 0.117

## RRIRIRPPRLPRPRPRPNAWPRP
  shrunken log2 fold change: 0.213

## RRIRGRPPRLPRPRPRPLCYPRP
  shrunken log2 fold change: 0.238

## RRIRARPPRLPRPRPRPNWSPRP
  shrunken log2 fold change: 0.225

## RRIRKRPPRLPRPRPRPTKAPRP
  shrunken log2 fold change: 0.647

## RRIRQRPPRLPRPRPRPVDWPRP
  shrunken log2 fold change: 0.39

## RRIRLRPPRLPRPRPRPQMLPRP
  shrunken log2 fold change: 0.0385

## RRIRQRPPRLPRPRPRPCRLPRP
  shrunken log2 fold change: -0.15

## RRIRHRPPRLPRPRPRPTKTPRP
  shrunken log2 fold change: -0.194

## RRIRDRPPRLPRPRPRPWMSPRP
  shrunken log2 fold change: -0.376

## RRIRVRPPRLPRPRPRPWMMPRP
  shrunken log2 fold change: -0.0912

## RRIRMRPPRLPRPRPRPMFPPRP
  shrunken log2 fold change: 0.164

## RRIRNRPPRLPRPRPRPFFQPRP
  shrunken log2 fold change: -0.427

## RRIRYRPPRLPRPRPRPWICPRP
  shrunken log2 fold change: -0.593

## RRIRARPPRLPRPRPRPAYQPRP
  shrunken log2 fold change: 0.106

## RRIRMRPPRLPRPRPRPCTTPRP
  shrunken log2 fold change: 0.104

## RRIRSRPPRLPRPRPRPAFVPRP
  shrunken log2 fold change: 0.577

## RRIRGRPPRLPRPRPRPAVIPRP
  shrunken log2 fold change: 0.232

## RRIRDRPPRLPRPRPRPTTIPRP
  shrunken log2 fold change: -0.121

## RRIRRRPPRLPRPRPRPQNVPRP
  shrunken log2 fold change: 0.0718

## RRIRPRPPRLPRPRPRPGFKPRP
  shrunken log2 fold change: 0.13

## RRIRVRPPRLPRPRPRPYCGPRP
  shrunken log2 fold change: -0.502

## RRIRDRPPRLPRPRPRPHENPRP
  shrunken log2 fold change: 0.116

## RRIRVRPPRLPRPRPRPRQHPRP
  shrunken log2 fold change: 0.174

## RRIRFRPPRLPRPRPRPNQKPRP
  shrunken log2 fold change: -0.159

## RRIRPRPPRLPRPRPRPAQVPRP
  shrunken log2 fold change: -0.0714

## RRIRNRPPRLPRPRPRPMPNPRP
  shrunken log2 fold change: -0.0406

## RRIRNRPPRLPRPRPRPIQHPRP
  shrunken log2 fold change: -0.0743

## RRIRHRPPRLPRPRPRPRLTPRP
  shrunken log2 fold change: -0.176

## RRIRFRPPRLPRPRPRPMCNPRP
  shrunken log2 fold change: -0.24

## RRIRTRPPRLPRPRPRPEKNPRP
  shrunken log2 fold change: 0.0495

## RRIRYRPPRLPRPRPRPNNQPRP
  shrunken log2 fold change: -1.05

## RRIRYRPPRLPRPRPRPRLFPRP
  shrunken log2 fold change: -0.194

## RRIRYRPPRLPRPRPRPMHYPRP
  shrunken log2 fold change: -1.03

## RRIRWRPPRLPRPRPRPQGIPRP
  shrunken log2 fold change: 0.102

## RRIRIRPPRLPRPRPRPPQKPRP
  shrunken log2 fold change: 0.0534

## RRIRPRPPRLPRPRPRPKSYPRP
  shrunken log2 fold change: -0.0208

## RRIRTRPPRLPRPRPRPYYSPRP
  shrunken log2 fold change: -0.274

## RRIRFRPPRLPRPRPRPAMRPRP
  shrunken log2 fold change: 0.307

## RRIRWRPPRLPRPRPRPQNLPRP
  shrunken log2 fold change: -0.103

## RRIRCRPPRLPRPRPRPVPHPRP
  shrunken log2 fold change: 0.0468

## RRIRARPPRLPRPRPRPAYVPRP
  shrunken log2 fold change: -0.118

## RRIRMRPPRLPRPRPRPCYQPRP
  shrunken log2 fold change: 2.31

## RRIRCRPPRLPRPRPRPPIYPRP
  shrunken log2 fold change: -0.253

## RRIRNRPPRLPRPRPRPERAPRP
  shrunken log2 fold change: 0.362

## RRIRIRPPRLPRPRPRPNFHPRP
  shrunken log2 fold change: -0.52

## RRIRHRPPRLPRPRPRPDHCPRP
  shrunken log2 fold change: 0.0278

## RRIRMRPPRLPRPRPRPSKIPRP
  shrunken log2 fold change: -0.0332

## RRIRFRPPRLPRPRPRPSSDPRP
  shrunken log2 fold change: -0.286
